Results from IntAct's records for PubMed 31515488.

B1: Germ cell-less protein-like 1 (Homo sapiens), Q96IK5 (parent)
chain: MGSLSSRVLRQPRPALAQQAQGARAGGSARRPDTGDDAAGHGFCYCAGSHKRKRSSGSFCYCHPDSETDEDEEEGDEQQRLLNTPRRKKLKSTSKYIYQTLFLNGENSDIKICALGEEWSLHKIYLCQSGYFSSMFSGSWKESSMNIIELEIPDQNIDVEALQVAFGSLYRDDVLIKPSRVVAILAAACLLQLDGLIQQCGETMKETVNVKTVCGYYTSAGTYGLDSVKKKCLEWLLNNLMTHQNVELFKELSINVMKQLIGSSNLFVMQVEMDIYTALKKWMFLQLVPSWNGSLKQLLTETDVWFSKQRKDFEGMAFLETEQGKPFVSVFRHLRLQYIISDLASARIIEQDAVVPSEWLSSVYKQQWFAMLRAEQDSEVGPQEINKEELEGNSMRCGRKLAKDGEYCWRWTGFNFGFDLLVTYTNRYIIFKRNTLNQPCSGSVSLQPRRSIAFRLRLASFDSSGKLICSRTTGYQILTLEKDQEQVVMNLDSRLLIFPLYICCNFLYISPEKKN
partner: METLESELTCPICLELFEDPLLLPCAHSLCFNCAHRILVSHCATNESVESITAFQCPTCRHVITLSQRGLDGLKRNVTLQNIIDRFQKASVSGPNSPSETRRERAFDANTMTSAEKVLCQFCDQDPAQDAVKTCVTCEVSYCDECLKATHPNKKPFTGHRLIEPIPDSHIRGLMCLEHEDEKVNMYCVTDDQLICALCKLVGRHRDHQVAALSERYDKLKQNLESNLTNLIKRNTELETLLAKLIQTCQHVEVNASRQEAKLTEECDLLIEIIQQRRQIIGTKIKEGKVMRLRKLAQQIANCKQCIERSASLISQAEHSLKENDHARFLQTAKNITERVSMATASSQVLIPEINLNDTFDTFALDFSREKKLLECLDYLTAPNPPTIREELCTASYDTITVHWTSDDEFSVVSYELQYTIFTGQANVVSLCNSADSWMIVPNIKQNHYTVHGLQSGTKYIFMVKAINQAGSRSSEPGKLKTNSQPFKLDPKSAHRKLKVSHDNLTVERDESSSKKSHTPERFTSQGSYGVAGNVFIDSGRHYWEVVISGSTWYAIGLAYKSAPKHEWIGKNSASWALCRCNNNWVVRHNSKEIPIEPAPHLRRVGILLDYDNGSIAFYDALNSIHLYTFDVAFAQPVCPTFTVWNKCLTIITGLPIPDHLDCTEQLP
B2: Plasma alpha-L-fucosidase (Homo sapiens), Q9BTY2 (parent)
chain: MRPQELPRLAFPLLLLLLLLLPPPPCPAHSATRFDPTWESLDARQLPAWFDQAKFGIFIHWGVFSVPSFGSEWFWWYWQKEKIPKYVEFMKDNYPPSFKYEDFGPLFTAKFFNANQWADIFQASGAKYIVLTSKHHEGFTLWGSEYSWNWNAIDEGPKRDIVKELEVAIRNRTDLRFGLYYSLFEWFHPLFLEDESSSFHKRQFPVSKTLPELYELVNNYQPEVLWSDGDGGAPDQYWNSTGFLAWLYNESPVRGTVVTNDRWGAGSICKHGGFYTCSDRYNPGHLLPHKWENCMTIDKLSWGYRREAGISDYLTIEELVKQLVETVSCGGNLLMNIGPTLDGTISVVFEERLRQMGSWLKVNGEAIYETHTWRSQNDTVTPDVWYTSKPKEKLVYAIFLKWPTSGQLFLGHPKAILGATEVKLLGHGQPLNWISLEQNGIMVELPQLTIHQMPCKWGWALALTNVI
B3: Tektin-4 (Homo sapiens), Q8WW24 (parent)
chain: MAQTVPPCELPCKEYDVARNTGAYTSSGLATASFRTSKYLLEEWFQNCYARYHQAFADRDQSERQRHESQQLATETQALAQRTQQDSTRTVGERLQDTHSWKSELQREMEALAAETNLLLAQKQRLERALDATEVPFSITTDNLQCRERREHPNLVRDHVETELLKEAELIRNIQELLKRTIMQAVSQIRLNREHKETCEMDWSDKMEAYNIDETCGRHHSQSTEVQAHPYSTTFQESASTPETRAKFTQDNLCRAQRERLASANLRVLVDCILRDTSEDLRLQCDAVNLAFGRRCEELEDARYKLHHHLHKTLREITDQEHNVAALKQAIKDKEAPLHVAQTRLYLRSHRPNMELCRDAAQFRLLSEVEELNMSLTALREKLLEAEQSLRNLEDIHMSLEKDIAAMTNSLFIDRQKCMAHRTRYPTILQLAGYQ
partner: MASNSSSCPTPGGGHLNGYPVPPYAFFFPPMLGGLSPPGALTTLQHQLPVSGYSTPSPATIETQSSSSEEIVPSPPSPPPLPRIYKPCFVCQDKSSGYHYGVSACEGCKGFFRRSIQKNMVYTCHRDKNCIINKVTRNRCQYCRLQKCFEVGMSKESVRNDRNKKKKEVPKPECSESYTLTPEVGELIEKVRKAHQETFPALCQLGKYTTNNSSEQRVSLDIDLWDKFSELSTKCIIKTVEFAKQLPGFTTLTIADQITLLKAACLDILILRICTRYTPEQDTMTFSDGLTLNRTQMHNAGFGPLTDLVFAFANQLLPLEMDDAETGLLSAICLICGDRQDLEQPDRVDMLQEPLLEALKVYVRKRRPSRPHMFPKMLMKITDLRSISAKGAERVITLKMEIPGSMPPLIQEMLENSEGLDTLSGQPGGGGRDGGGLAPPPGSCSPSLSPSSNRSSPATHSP
B4: Dystrobrevin beta (Homo sapiens), O60941 (parent)
chain: MIEESGNKRKTMAEKRQLFIEMRAQNFDVIRLSTYRTACKLRFVQKRCNLHLVDIWNMIEAFRDNGLNTLDHTTEISVSRLETVISSIYYQLNKRLPSTHQISVEQSISLLLNFMIAAYDSEGRGKLTVFSVKAMLATMCGGKMLDKLRYVFSQMSDSNGLMIFSKFDQFLKEVLKLPTAVFEGPSFGYTEHSVRTCFPQQRKIMLNMFLDTMMADPPPQCLVWLPLMHRLAHVENVFHPVECSYCRCESMMGFRYRCQQCHNYQLCQNCFWRGHAGGPHSNQHQMKEHSSWKSPAKKLSHAISKSLGCVPTREPPHPVFPEQPEKPLDLAHIVPPRPLTNMNDTMVSHMSSGVPTPTKRLQYSQDIPSHLADEHALIASYVARLQHCARVLDSPSRLDEEHRLIARYAARLAAEAGNVTRPPTDLSFNFDANKQQRQLIAELENKNREILQEIQRLRLEHEQASQPTPEKAQQNPTLLAELRLLRQRKDELEQRMSALQESRRELMVQLEELMKLLKEEEQKQAAQATGSPHTSPTHGGGRPMPMPVRSTSAGSTPTHCPQDSLSGVGGDVQEAFAQGTRRNLRNDLLVAADSITNTMSSLVKELHSAEEGAEEEEEKMQNGKDRG
partner: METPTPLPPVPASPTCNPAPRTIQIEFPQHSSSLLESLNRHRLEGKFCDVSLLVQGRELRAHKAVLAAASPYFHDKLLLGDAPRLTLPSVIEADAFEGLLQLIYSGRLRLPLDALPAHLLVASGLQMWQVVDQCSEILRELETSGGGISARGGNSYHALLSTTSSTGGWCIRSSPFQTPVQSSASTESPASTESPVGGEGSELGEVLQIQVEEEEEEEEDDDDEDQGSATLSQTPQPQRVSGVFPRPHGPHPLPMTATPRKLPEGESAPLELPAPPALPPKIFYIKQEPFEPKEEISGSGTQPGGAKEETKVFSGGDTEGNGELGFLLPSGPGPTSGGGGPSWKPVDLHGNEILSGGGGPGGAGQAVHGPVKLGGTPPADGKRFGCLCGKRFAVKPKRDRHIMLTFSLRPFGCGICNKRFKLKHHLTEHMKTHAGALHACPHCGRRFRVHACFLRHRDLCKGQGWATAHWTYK
B5: Notch homolog 2 N-terminal-like protein A (Homo sapiens), Q7Z3S9 (parent)
chain: MCVTYHNGTGYCKCPEGFLGEYCQHRDPCEKNRCQNGGTCVAQAMLGKATCRCASGFTGEDCQYSTSHPCFVSRPCLNGGTCHMLSRDTYECTCQVGFTGKECQWTDACLSHPCANGSTCTTVANQFSCKCLTGFTGQKCETDVNECDIPGHCQHGGTCLNLPGSYQCQCLQGFTGQYCDSLYVPCAPSPCVNGGTCRQTGDFTFECNCLPETVRRGTELWERDREVWNGKEHDEN
partner: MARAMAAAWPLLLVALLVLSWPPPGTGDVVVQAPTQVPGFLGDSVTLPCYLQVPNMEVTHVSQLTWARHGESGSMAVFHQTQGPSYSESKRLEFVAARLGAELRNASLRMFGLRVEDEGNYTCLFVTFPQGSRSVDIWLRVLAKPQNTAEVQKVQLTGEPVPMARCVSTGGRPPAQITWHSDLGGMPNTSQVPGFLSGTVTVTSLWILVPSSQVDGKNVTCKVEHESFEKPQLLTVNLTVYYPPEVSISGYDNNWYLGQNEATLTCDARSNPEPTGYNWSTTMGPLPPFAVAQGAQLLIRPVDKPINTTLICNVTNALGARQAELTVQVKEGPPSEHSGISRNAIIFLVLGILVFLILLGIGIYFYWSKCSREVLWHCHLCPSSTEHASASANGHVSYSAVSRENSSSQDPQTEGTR
B6: Four and a half LIM domains protein 2 (Homo sapiens), Q14192 (parent)
chain: MTERFDCHHCNESLFGKKYILREESPYCVVCFETLFANTCEECGKPIGCDCKDLSYKDRHWHEACFHCSQCRNSLVDKPFAAKEDQLLCTDCYSNEYSSKCQECKKTIMPGTRKMEYKGSSWHETCFICHRCQQPIGTKSFIPKDNQNFCVPCYEKQHAMQCVQCKKPITTGGVTYREQPWHKECFVCTACRKQLSGQRFTARDDFAYCLNCFCDLYAKKCAGCTNPISGLGGTKYISFEERQWHNDCFNCKKCSLSLVGRGFLTERDDILCPDCGKDI
partner: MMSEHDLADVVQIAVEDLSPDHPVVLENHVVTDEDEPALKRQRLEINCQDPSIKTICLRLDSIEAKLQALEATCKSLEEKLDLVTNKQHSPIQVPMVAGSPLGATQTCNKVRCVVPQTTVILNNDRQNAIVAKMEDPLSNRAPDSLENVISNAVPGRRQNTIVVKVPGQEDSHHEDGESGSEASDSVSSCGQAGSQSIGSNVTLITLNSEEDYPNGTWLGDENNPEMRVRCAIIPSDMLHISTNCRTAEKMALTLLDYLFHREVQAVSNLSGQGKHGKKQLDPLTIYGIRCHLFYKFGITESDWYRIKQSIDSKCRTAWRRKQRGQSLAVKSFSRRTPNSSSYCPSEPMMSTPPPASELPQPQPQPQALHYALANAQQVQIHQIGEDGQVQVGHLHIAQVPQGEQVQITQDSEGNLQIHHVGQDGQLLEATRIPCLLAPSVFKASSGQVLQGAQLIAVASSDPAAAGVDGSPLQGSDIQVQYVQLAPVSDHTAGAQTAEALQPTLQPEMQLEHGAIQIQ
B7: Modulator of apoptosis 1 (Homo sapiens), Q96BY2 (parent)
chain: MTLRLLEDWCRGMDMNPRKALLIAGISQSCSVAEIEEALQAGLAPLGEYRLLGRMFRRDENRKVALVGLTAETSHALVPKEIPGKGGIWRVIFKPPDPDNTFLSRLNEFLAGEGMTVGELSRALGHENGSLDPEQGMIPEMWAPMLAQALEALQPALQCLKYKKLRVFSGRESPEPGEEEFGRWMFHTTQMIKAWQVPDVEKRRRLLESLRGPALDVIRVLKINNPLITVDECLQALEEVFGVTDNPRELQVKYLTTYQKDEEKLSAYVLRLEPLLQKLVQRGAIERDAVNQARLDQVIAGAVHKTIRRELNLPEDGPAPGFLQLLVLIKDYEAAEEEEALLQAILEGNFT
partner: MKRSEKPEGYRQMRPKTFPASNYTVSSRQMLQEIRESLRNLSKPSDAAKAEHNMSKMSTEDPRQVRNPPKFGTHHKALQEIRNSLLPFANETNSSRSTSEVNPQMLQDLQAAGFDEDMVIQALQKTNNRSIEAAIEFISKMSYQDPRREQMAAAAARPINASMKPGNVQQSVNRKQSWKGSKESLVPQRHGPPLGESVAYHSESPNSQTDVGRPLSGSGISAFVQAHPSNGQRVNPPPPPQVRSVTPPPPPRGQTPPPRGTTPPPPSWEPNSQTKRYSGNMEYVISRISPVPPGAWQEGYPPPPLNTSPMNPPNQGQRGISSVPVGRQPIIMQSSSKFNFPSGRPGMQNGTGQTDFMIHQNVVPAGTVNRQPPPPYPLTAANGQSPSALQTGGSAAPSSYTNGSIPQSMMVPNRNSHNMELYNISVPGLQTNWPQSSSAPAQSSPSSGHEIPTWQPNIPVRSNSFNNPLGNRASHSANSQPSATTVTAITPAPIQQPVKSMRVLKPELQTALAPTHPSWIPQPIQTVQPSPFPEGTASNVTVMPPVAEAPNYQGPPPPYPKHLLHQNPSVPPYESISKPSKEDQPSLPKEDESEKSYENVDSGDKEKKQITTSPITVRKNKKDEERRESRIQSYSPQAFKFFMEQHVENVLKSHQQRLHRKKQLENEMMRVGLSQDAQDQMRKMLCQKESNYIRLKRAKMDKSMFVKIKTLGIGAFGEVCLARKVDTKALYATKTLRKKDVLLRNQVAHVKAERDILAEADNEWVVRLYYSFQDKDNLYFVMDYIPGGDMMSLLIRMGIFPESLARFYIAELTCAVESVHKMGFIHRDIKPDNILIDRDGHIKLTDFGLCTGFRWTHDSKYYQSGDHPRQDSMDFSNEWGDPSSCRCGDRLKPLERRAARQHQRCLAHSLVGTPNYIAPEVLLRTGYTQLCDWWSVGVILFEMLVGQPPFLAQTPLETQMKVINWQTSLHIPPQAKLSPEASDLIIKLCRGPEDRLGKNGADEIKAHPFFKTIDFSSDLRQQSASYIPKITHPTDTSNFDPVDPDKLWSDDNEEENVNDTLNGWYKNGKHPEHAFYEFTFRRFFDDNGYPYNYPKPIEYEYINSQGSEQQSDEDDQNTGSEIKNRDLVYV

Variants of: B1
Settings: with tri18_human MID1, O15344

Variant | effect of a mutation on the interaction
E77K | with no effect

Variants of: B2
Settings: with meox2_human MEOX2, P50222
meox2_human MEOX2, P50222, sequence (P50222 whole entry): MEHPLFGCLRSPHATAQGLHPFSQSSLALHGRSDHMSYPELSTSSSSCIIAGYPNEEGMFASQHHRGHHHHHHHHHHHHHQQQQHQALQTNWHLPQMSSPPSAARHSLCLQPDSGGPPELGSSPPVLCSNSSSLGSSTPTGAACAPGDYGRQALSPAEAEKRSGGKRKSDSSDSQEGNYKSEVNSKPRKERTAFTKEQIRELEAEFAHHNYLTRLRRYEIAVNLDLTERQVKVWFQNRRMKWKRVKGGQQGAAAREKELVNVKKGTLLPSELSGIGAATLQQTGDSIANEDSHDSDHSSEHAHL

Variant | effect of a mutation on the interaction
A233E | with no effect

Variants of: B3
Settings: with rara_human RARA

Variant | effect of a mutation on the interaction
M374T | with no effect
D403N | with no effect
A80V | disrupting interaction strength
C272S | disrupting interaction strength
R64W | with no effect

Variants of: B4
Settings: with zbtb9_human ZBTB9, Q96C00

Variant | effect of a mutation on the interaction
R80H | with no effect

Variants of: B5
Settings: with pvr_human PVR

Variant | effect of a mutation on the interaction
A115T | with no effect
R74Q | with no effect

Variants of: B6
Settings: with banp_human BANP

Variant | effect of a mutation on the interaction
R177Q | with no effect

Variants of: B7
Settings: with lats1_human LATS1, O95835

Variant | effect of a mutation on the interaction
R57K | disrupting interaction strength
